This test deals with human TSHR with mutation K209E expressed in CHO cells (human) (UniProt P16473). The test can be described thus: cell-based or functional assay.
Chain of UniProt P16473 (P16473 22-764 K209E/E727D): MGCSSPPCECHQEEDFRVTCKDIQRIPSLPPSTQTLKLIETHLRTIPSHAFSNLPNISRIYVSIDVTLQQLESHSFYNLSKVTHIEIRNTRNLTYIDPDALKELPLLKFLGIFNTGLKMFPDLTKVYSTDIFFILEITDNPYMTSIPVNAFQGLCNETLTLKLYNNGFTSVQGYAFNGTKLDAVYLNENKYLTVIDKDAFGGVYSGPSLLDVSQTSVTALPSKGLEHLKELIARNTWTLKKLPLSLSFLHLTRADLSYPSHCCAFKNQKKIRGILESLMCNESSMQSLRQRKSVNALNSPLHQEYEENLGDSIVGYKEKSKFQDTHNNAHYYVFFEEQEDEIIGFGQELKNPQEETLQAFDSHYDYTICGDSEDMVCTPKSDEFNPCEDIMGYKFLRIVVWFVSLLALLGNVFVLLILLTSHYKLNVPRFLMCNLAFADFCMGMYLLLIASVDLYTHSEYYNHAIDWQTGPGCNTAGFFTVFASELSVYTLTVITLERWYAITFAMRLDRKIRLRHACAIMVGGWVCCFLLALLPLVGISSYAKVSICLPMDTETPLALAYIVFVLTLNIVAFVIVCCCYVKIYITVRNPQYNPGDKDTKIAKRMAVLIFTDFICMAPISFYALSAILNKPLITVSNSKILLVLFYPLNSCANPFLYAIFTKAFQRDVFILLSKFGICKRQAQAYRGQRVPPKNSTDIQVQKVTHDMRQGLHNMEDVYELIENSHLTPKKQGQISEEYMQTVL

B1: M22 Fab (Fab fragment of human monoclonal thyroid stimulating autoantibody hMAb TSHR1) (Fab, from another filing, V domains shown)
VH: QVQLVQSGAEVKKPGESLKISCRGSGYRFTSYWINWVRQLPGKGLEWMGRIDPTDSYTNYSPSFKGHVTVSADKSINTAYLQWSSLKASDTGMYYCARLEPGYSSTWSVNWGQGTLVTVSS
VL: LTVLTQPPSVSGAPRQRVTISCSGNSSNIGNNAVNWYQQLPGKAPKLLIYYDDQLPSGVSDRFSGSRSGTSASLAIRGLQSEDEADYYCTSWDDSLDSQLFGGGTRLTVLG
B1 came in with an M22 stimulating activity (cyclic AMP production in TSHR expressing CHO cells) (% of activity with the wild type TSHR) of under 20.
